Paper PMC4741471 (Oncotarget, 2015)

Target: the molecule itself
Test: non-reducing SDS-PAGE without heating

B1: cholera toxin B subunit (recombinant, His6-tagged CTB) (natural protein)
chain: TPQNITDLCAEYHNTQIYTLNDKIFSYTESLAGKREMAIITFKNGAIFQVEVPGSQHIDSQKKAIERMKDTLRIAYLTEAKVEKLCVWNNKTPHAIAAISMAN
  stoichiometry N: 5
